In the PETadex activity labels (doi:10.1016/j.enzmictec.2020.109715):

Experiments:
pNP-C8 [1] = test: Proxy for plastic degradation [p-nitrophenol (pNP) release] (% relative activity)
pNP-C8 [2] = test: Proxy for plastic degradation [Relative activity]
PET = test: Proxy for plastic degradation [Released monomer concentration (HPLC/LC-MS) (MHET+TPA+BHET)]; conditions: pH 8
BHET = conditions: pH 7; 40 °C; part of the chain shown
p-NP-C2 = conditions: pH 7; 40 °C; part of the chain shown
p-NP-C4 = conditions: pH 7; 40 °C; part of the chain shown

B1: unnamed (protein)
chain: MDGVLWRVRTAALMAALLALAAWALVWASPSVEAQSNPYQRGPNPTRSALTADGPFSVATYTVSRLSVSGFGGGVIYYPTGTSLTFGGIAMSPGYTADASSLAWLGRRLASHGFVVLVINTNSRFDYPDSRASQLSAALNYLRTSSPSAVRARLDANRLAVAGHSMGGGGTLRIAEQNPSLKAAVPLTPWHTDKTFNTSVPVLIVGAEADTVAPVSQHAIPFYQNLPSTTPKVYVELDNASHFAPNSNNAAISVYTISWMKLWVDNDTRYRQFLCNVNDPALSDFRTNNRHCQ
Proxy for plastic degradation (pNP-C8 [1]; pH 3): 0 | Proxy for plastic degradation (pNP-C8 [1]; pH 4): 17 | Proxy for plastic degradation (pNP-C8 [1]; pH 5): 69 | Proxy for plastic degradation (pNP-C8 [1]; pH 6): 100 | Proxy for plastic degradation (pNP-C8 [1]; pH 7): 100 | Proxy for plastic degradation (pNP-C8 [1]; pH 8): 89 | Proxy for plastic degradation (pNP-C8 [1]; pH 8, 5 °C): 100 | Proxy for plastic degradation (pNP-C8 [1]; pH 8, 30 °C): 32 | Proxy for plastic degradation (pNP-C8 [1]; pH 8, 35 °C): 47 | Proxy for plastic degradation (pNP-C8 [1]; pH 9): 54 | Proxy for plastic degradation (pNP-C8 [1]; pH 10): 0

B2: unnamed (protein)
chain: MQVVLGRVRSAGLLAALLALAAWALVWASPSAEAQSNPYQRGPNPTRSALTTDGPFSVATYSVSRLSVSGFGGGVIYYPTGTTLTFGGIAMSPGYTADASSLAWLGRRLASHGFVVIVINTNSRLDFPDSRASQLSAALNYLRTSSPSAVRARLDANRLAVAGHSMGGGATLRISEQIPTLKAGVPLTPWHTDKTFNTPVPQLIVGAEADTVAPVSQHAIPFYQNLPSTTPKVYVELDNATHFAPNSPNAAISVYTISWMKLWVDNDTRYRQFLCNVNDPALSDFRSNNRHCQ
Proxy for plastic degradation (pNP-C8 [2]; 5 °C): 100% | Proxy for plastic degradation (pNP-C8 [2]; 30 °C): 20% | Proxy for plastic degradation (pNP-C8 [2]; 35 °C): 30% | Proxy for plastic degradation (pNP-C8 [2]; pH 3): 0% | Proxy for plastic degradation (pNP-C8 [2]; pH 4): 20% | Proxy for plastic degradation (pNP-C8 [2]; pH 5): 70% | Proxy for plastic degradation (pNP-C8 [2]; pH 6): 95% | Proxy for plastic degradation (pNP-C8 [2]; pH 7): 100% | Proxy for plastic degradation (pNP-C8 [2]; pH 8): 100% | Proxy for plastic degradation (pNP-C8 [2]; pH 9): 90% | Proxy for plastic degradation (pNP-C8 [2]; pH 10): 15% | Proxy for plastic degradation (pNP-C8 [1]; pH 3): 0 | Proxy for plastic degradation (pNP-C8 [1]; pH 4): 17 | Proxy for plastic degradation (pNP-C8 [1]; pH 5): 69 | Proxy for plastic degradation (pNP-C8 [1]; pH 6): 94 | Proxy for plastic degradation (pNP-C8 [1]; pH 7): 100 | Proxy for plastic degradation (pNP-C8 [1]; pH 8): 100 | Proxy for plastic degradation (pNP-C8 [1]; pH 8, 5 °C): 100 | Proxy for plastic degradation (pNP-C8 [1]; pH 8, 30 °C): 21 | Proxy for plastic degradation (pNP-C8 [1]; pH 8, 35 °C): 30 | Proxy for plastic degradation (pNP-C8 [1]; pH 9): 88 | Proxy for plastic degradation (pNP-C8 [1]; pH 10): 11 | Proxy for plastic degradation (PET; 30 °C): 0 mM | Proxy for plastic degradation (PET; 40 °C): 0.2 mM | Proxy for plastic degradation (PET; 50 °C): 1.1 mM | Proxy for plastic degradation (PET; 60 °C): 3.8 mM | Proxy for plastic degradation (PET; 70 °C): 6.2 mM | Proxy for plastic degradation (PET; 80 °C): 4.9 mM

B3: unnamed (protein)
chain: QSNPYQRGPNPTRSALTTDGPFSVATYSVSRLSVSGFGGGVIYYPTGTTLTFGGIAMSPGYTADASSLAWLGRRLASHGFVVIVINTNSRLDFPDSRASQLSAALNYLRTSSPSAVRARLDANRLAVAGHSMGGGATLRISEQIPTLKAGVPLTPWHTDKTFNTPVPQLIVGAEADTVAPVSQHAIPFYQNLPSTTPKVYVELDNATHFAPNSPNAAISVYTISWMKLWVDNDTRYRQFLCNVNDPALSDFRSNNRHCQ
Km (BHET): 16800 µM | kcat (BHET): 7.3 s⁻¹ | kcat/Km (BHET): 435 M⁻¹ s⁻¹ | Km (p-NP-C2): 1150 µM | kcat (p-NP-C2): 131 s⁻¹ | kcat/Km (p-NP-C2): 114000 M⁻¹ s⁻¹ | Km (p-NP-C4): 300 µM | kcat (p-NP-C4): 53.9 s⁻¹ | kcat/Km (p-NP-C4): 180000 M⁻¹ s⁻¹
